Experimental findings from IntAct's records for PubMed 21946561 are described below.

B1: Neuronal tyrosine-phosphorylated phosphoinositide-3-kinase adapter 2 (Mus musculus), Q8BM65-4 (parent)
chain: MIPSKMMSANPEEDPLDTFFQYIEDMGMKAYDGLVIQNASDIARENDRLRNETKLAYLKEKNEKRRRQEETIKRIGGEVGRGQDASYAGKHFRMGFMTMPAPQDRLPHPCSSGFTVRSQSLHSVGGTEDDSSCGSRRQPPPKPKRDPSTKLSTSSETVNSTAASKSGRSLERAEGKFTVPASHSPPRASTSGHLFPSPGSQERNIKVSAKPRPHSDEYSKKIPPPKPKRNPNTQLSTSFDETYIKKHVPRRTSLPRDSSLSQVCSPAADPEEEEPVYIEMVGNILRDFRKEEDDQSEAVYEEMKYPIFDDLGHDSKCDFDHHSCSSQCATPTVPDLDFVKSSGPCTPKGLLCDIPPPFPNLLSHRPPLLVFPPAPVHCSPNSDESPLTPLEVTKLPVLENVSYMKQPPGACPSSLPSHGSSHAKDQTGALGPAPGASILSSSPPPPSTLYRTQSPHGYPKSHSTSPSPVSMGRSLTPLSLKRPPPYDAVHSGSLSRSSSSVPHTTPRPVSQDGAKMVNAAVNTYSAAQSGSRSRTPTSPLEELTSLFTSGRSLLRKSSSGRRSKEPAEKSTEELKVRSHSTEPLPKLDSKERGHYGSSSSREPVKAQEWDGTPGPPVVTSRMGRCSVSPTLLAGNHSSEPKVSCKLGRSASTSGVPPPSVTPLRQASDLQQSQVACMQWFHGDHTMLEMIEKKRCLCKEIKARQKTEKGLCKQDSMPILPSWKKNAGAKKYSPPPYSKQQTVFWDTAI
B2: Neuronal tyrosine-phosphorylated phosphoinositide-3-kinase adapter 1 (Mus musculus), Q6PFX7 (parent)
chain: MNLLYRKTKLEWRQHKEEEAKRSSSKEAAPTGPVGPGAVPGPGVRVRDIASLRRSLRMGFMTMPASQEHTPHPCRSTMAPRSLSCHSVGSMDSVGGGPGGGLTEDSSTRRPPAKPRRHPSTKLSMAGPGAETPPSKKAGSQKPAPECRESSRKVPPQKPRRSPNTQLSVSFDESCAPAPSPRGANLPLQRLSRASRITGDLDAGAQEEEPVYIEMVGDVFRGGGRSGGGLAGPPLGSGGPTPPAAADSDSEDSEAIYEEMKYPLPEEAGDGRANGPPPLTAPSPPQQTHILQPHPHPHRRPASALPSRRDGTPTKTTPCEIPPPFPNLLQHRPPLLAFPQAKSASRAPGDGVSRLPVLCHSKEPAGSTPAPQVPARERETPPLPPPPPAANLLLLGPSGRARSHSTPLPPQGSGQTRGERELPNSHSMICPKAAGVPAAHPAPAALLPGPPKDKAVSYTMVYSAVKVTTHSVLPAGPPLGVGEPKTEEISVLHGMLCASSRPPVPGKSSPHSGAMGSAAGVLHHRSCLASPHSLPDPTGGSLTPLWTYPATAAGLKRPPAYDSLKAGGVLNKGCGMGAPSPMVKIQLQEQGTDGGAFASISCAHVIASAGTPEEEEEMGAAFGAGWALQRKVLYGGRKAKEVDTEEDGARAWNGSTEGPGKVEHEDRGPVPSGIPVRSQGAEGLLARIHHDRGGSRTALPVPCQTFPACHRNGDFTGGYRLGRSASTSGVRQAALHTPRPCSQPRDALSQTHPVLPLPLPPQPARERDGKLLEVIERKRCVCKEIKARHRPDRGLCKQESMPILPSWRRVPEPRKSGTPPCRRQHTVLWDTAI

Variants of B1 are the subject of the first test. As to conditions: with p85a_human PIK3R1, P27986.
Target sequence in this assay (P27986 whole entry): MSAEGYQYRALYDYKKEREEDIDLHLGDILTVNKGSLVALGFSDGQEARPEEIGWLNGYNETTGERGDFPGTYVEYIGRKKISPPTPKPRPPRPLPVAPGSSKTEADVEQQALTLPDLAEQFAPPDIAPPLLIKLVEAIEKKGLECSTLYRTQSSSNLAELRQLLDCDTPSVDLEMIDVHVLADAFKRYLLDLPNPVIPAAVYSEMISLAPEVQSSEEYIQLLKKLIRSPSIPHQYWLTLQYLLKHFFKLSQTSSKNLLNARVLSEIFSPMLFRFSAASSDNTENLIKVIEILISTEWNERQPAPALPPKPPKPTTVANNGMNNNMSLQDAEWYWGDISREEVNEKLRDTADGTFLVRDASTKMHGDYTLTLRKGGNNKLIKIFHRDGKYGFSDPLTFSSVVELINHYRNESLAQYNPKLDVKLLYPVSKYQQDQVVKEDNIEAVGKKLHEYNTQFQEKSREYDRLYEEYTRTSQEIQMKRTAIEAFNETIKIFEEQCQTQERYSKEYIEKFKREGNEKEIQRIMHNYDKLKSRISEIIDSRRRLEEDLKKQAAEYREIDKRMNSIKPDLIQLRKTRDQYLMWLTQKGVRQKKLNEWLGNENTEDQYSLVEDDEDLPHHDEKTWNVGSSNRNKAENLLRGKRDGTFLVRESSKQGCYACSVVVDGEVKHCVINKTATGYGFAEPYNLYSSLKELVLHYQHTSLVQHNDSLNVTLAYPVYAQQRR
Consider Y277F, for which the “effect of a mutation on the interaction” value was “disrupting interaction”.
With Y300F, the “effect of a mutation on the interaction” value is listed as “disrupting interaction”.

Variants of B2 are the subject of another test. As to conditions: with p85a_human PIK3R1, P27986.
Target sequence in this assay (P27986 whole entry): as above
Consider Y212F, for which the “effect of a mutation on the interaction” value is “disrupting interaction”.
As for Y257F, the “effect of a mutation on the interaction” value was “disrupting interaction”.

The variants in the next test derive from B2. The note with it: with p85a_human PIK3R1, P27986. This is another data set of the same source.
Target sequence in this assay (P27986 whole entry): as above
Y257F: the “effect of a mutation on the interaction” value was “decreasing interaction”.
